Test results published in US20090263410A1, “USE OF TGF-B1 INHIBITOR PEPTIDES IN THE PREPARATION OF AN IMMUNE RESPONSE MODULATING AGENT” (Proyecto De Biomedicina Cima, S.L., priority 2005, published 2009).

Key:
CT26 cells = assay: Protection against growth of CT26 cells after immunization with AH1 + LVQ mixtures; type: in vivo, BALB/c mice; conditions: mice protected/total; immunization mixtures in Freund's incomplete adjuvant; 500,000 CT26 cells subcutaneous
Source text: […] is a peptide which is presented by the MHC-II on the surface of the presenting cell, and a DTc is a peptide which is presented by MHC-I on the surface of the presenting cell and in tumour cells. It is known that the joint immunization of a DTc (AH1 peptide) and a DTh (LVQ peptide), both peptides coming from the gp70 protein of the tumour antigen expressed by CT26 cells, was capable of protecting against the subcutaneous growth of 500,000 CT26 tumour cells. Since TGF-β1 is important in the immune response induction process, we wanted to study the effect of peptide p144 on the induction of the response responsible for protection against the growth of CT26 cells. As is indicated in Table 1, three groups of BALB/c mice were immunized with the following mixtures of Freund's incomplete adjuvant: (i) with AH1 LVQ, (ii) with AH1+LVQ+p144 and (iii) just with Freund's incomplete adjuvant.

TGF-β1 = biological target: T1, TGF-β1 (Mus musculus, UniProt P04202); assay: In vivo activity of recombinant adenovirus for mouse IL-12: IFN-γ and NO levels in serum; set-up: species or system BALB/c mice
T1 construct: an in vivo system wherein TGF-β1 acts as supposed antagonist of the cytokines induced in this model; from tissue; host or cells: living BALB/c mice (Harlan), endogenous TGF-β1; read-out in serum
Source text: This example studies the effect of peptide p144 in an in vivo system wherein TGF-β1 acts as supposed antagonist of the cytokines induced in this model. The production of mouse IL-12 by the expression of a transgen included in the recombinant adenovirus, induces an inflammatory state through the induction of a cascade of factors, including IFN-γ and nitric oxide. TGF-β1 has been described as an inhibitor of the production and biological action of IL-12, IFN-γ and NO (Pardoux C. et al., 1999; Schini V. B. et al., 1992). […]
Blood samples were extracted from both groups on days 6 and 9 after immunization for the subsequent quantification of IFN-γ and NO levels in serum.
The quantity of IFN-γ was measured by a commercial ELISA (Mouse IFN-γ Duoset ELISA Development System, Genzyme, Cambridge and OPTEIA Mouse IFN-γ Ser, Pharmingen, San Diego, USA) in accordance with the manufacturer's instructions. The results were expressed as pg/ml of IFN-γ and using a standard curve of known quantities of IFN-γ. […]
NO2* emission is in the red and infrared region of the light spectrum and is detected by a red-sensitive photomultiplier tube. This signal is quantified and the data obtained are collected and processed by a computer.

T1 sequence (P04202 279-390 limits assumed): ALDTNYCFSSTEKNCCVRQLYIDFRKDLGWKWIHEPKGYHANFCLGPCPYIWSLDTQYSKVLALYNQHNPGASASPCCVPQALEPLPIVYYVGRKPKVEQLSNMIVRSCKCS

Question: For “p144: peptide inhibiting TGF-β1 whose amino acid sequence corresponds to SEQ ID NO: 1 (TSLDASIIWAMMQN; Synthetic Construct from human TGB-Beta1 type III receptor.Domain730-743)”, which “Protection level against the growth of CT26 cells” value (CT26 cells) is on record?
Answer: negative effect on protection

Question: What about the “serum levels of IFN-γ” value (TGF-β1; RAd IL-12 1×10^8 pfu i.p. plus p144 daily 100 μg for 5 days, versus RAd IL-12 alone) of the same substance?
Answer: increases

Question: And the NO serum levels (TGF-β1; day 6, RAd IL-12 1×10^8 pfu i.p. plus p144, versus RAd IL-12 alone)?
Answer: greater level
